Measured values reported in article PMC8163762, “Impact of DNA methylation on 3D genome structure”.

Target: T1, Ume6p (Saccharomyces cerevisiae, UniProt P39001 1-836)
T1 sequence: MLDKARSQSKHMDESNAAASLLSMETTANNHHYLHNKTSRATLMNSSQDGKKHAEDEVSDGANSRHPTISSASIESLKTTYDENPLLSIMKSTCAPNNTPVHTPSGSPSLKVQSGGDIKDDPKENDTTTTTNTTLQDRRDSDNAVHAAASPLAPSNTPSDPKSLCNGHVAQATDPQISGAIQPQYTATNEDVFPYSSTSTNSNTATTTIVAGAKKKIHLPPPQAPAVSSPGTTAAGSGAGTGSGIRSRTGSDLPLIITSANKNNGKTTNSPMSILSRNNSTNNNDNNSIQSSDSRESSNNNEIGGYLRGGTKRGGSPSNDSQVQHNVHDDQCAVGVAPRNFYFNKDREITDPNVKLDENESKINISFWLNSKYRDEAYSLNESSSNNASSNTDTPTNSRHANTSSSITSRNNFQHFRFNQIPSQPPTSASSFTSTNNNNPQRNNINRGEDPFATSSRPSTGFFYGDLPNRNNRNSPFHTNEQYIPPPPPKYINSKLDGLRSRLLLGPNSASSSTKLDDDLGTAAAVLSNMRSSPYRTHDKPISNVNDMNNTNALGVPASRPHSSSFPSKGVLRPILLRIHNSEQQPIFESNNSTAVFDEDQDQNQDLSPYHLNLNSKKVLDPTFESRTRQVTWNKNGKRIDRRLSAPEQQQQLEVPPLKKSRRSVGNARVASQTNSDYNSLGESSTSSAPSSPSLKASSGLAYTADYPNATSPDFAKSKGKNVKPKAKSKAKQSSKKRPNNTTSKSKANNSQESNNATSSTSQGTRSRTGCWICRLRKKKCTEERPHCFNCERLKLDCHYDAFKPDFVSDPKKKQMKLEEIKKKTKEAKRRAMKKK
Test: EMSA; EMSA buffer and temperature not given in material; protein dialyzed in 10 mM sodium phosphate pH 7.4, 50 mM NaCl, 10 uM ZnCl2
Details: protein: recombinant; tags: N-terminal 6xHis (pET14b); label: Cy5 on forward oligo

B1: SPO13 URS1 probe, unmethylated (Spo13-Cy5-F/Spo13-R) (dsDNA)
DNA 1: TTAATTAGGAGTATATTGAGAAATAGCCGCCGACAAAAAGGAAGTCTCATAAAAGT
DNA 2: ACTTTTATGAGACTTCCTTTTTGTCGGCGGCTATTTCTCAATATACTCCTAATTAA
B1: binds.
